Data reported in patent US12186374B2 (Sanofi-Aventis Deutschland GmbH, priority 2014, dated 2025).

Experiments:
patients with T2DM [1] = assay: Patients with HbA1c ≤6.5% or <7% at Week 30 (Example 3); type: in vivo, human
Excerpt: Similar MMRM method or analysis of covariance (ANCOVA) was applied on continuous secondary efficacy endpoints and the Cochran-Mantei-Haenszel method stratified by randomization strata was applied for categorical efficacy endpoints.

[2] = test system: patients with Type 2 diabetes mellitus (T2DM); assay: Patient disposition / treatment discontinuation (Example 2); type: in vivo; settings: randomized population
patients with T2DM [3] = assay: Increased calcitonin reported on AE form (Example 3); type: in vivo, human
Excerpt: During the course of the study, if calcitonin value is found […] (5.9 pmol/L): • A retest should be performed by the central laboratory within 7 days. In addition, blood should be collected and sent to the central laboratory for measurement of: calcium, phosphorus, gastrin, Thyroid Stimulating Hormone (TSH), and anti-thyroid peroxidase (anti-TPO) antibodies. • The clinical and laboratory documentations listed below are to be collected and recorded in source documents as soon as possible: • Potential false positive circumstances: smoking status, proton-pump inhibitor treatments (eg, omeprazole), autoimmune thyroid diseases (Hashimoto's thyroiditis or Grave's disease), differentiated thyroid cancer, hypercalcemia, hypergastrinemia, chronic renal insufficiency (not on dialysis), other neuro-endocrine tumors (lung small cell cancer, intestinal carcinoid), acute pulmonary inflammatory conditions, or sepsis; • Specific personal and/or familial medical history in relation to thyroid or other endocrine diseases; • Specific physical examination (neck, thyroid gland).
If the retest confirms that the calcitonin value is […]: • The event must be reported in the e-CRF on the specific AE form and specific complementary form for “increased calcitonin […]” with all appropriate clinical and laboratory documentation. • An ultrasound scan of the thyroid should be performed and the patient may be referred to a thyroid specialist if judged necessary. • The patient should continue to be followed according to protocol schedule (including planned calcitonin measurements). […] As far as possible, blood should be collected 1 to 2 weeks after IMP discontinuation and sent to the central laboratory for calcitonin measurement. • If at any time during follow-up a calcitonin value ≥20 pg/mL increases by 20% or more between 2 assessments (while remaining below 50 pg/mL), a repeated measurement should be performed earlier than scheduled in the protocol, ie, 1 month later. Once results are available, discussion with Sponsor should be initiated without delay for further guidance. 9.6.7 Monitoring of Renal Function in Case of Prolonged and Severe Nausea and Vomiting

[4] = PT, on-treatment period, Safety population
[5] = on-treatment period, Safety population

Gly(A21)-Arg(B31)-Arg(B32)-human insulin [Insulin Glargine]
Patients reaching HbA1c<7.0% at Week 30 (patients with T2DM [1]; Example 3): 29.6% | Patients reaching HbA1c≤[…] at Week 30 (patients with T2DM [1]; Example 3): 14.2% | Patients with HbA1c <7% at Week 30 (patients with T2DM [1]; mITT population): 108 (29.6%) Number (%) | Patients with HbA1c ≤[…] at Week 30 (patients with T2DM [1]; mITT population): 52 (14.2%) Number (%) | Status at last study contact: Dead, % [2]: 0.9% | Status at last study contact: Dead, number of patients [2]: 4 patients | Study treatment discontinuation due to adverse event, % [2]: 1.9% | Study treatment discontinuation due to adverse event, number of patients [2]: 9 patients | Study treatment discontinuation due to lack of efficacy, number of patients [2]: 0 patients | Patients with TEAE of increased calcitonin (≥20 pg/mL) (patients with T2DM [3]; Example 3): Two | % of patients with events reported on the AE form for increased calcitonin (≥20 ng/L): Blood calcitonin increased (patients with T2DM [3]; [4]): 0.5% | Number of patients with events reported on the AE form for increased calcitonin (≥20 ng/L): Blood calcitonin increased (patients with T2DM [3]; [4]): 2 | % of patients with events reported on the AE form for increased calcitonin (≥20 ng/L): Any (patients with T2DM [3]; [5]): 0.5% | Number of patients with events reported on the AE form for increased calcitonin (≥20 ng/L): Any (patients with T2DM [3]; [5]): 2
